According to PMC9696180:

Tests used:
αVβ3 integrin [1] = biological target: αVβ3 integrin (UniProt P06756)
αVβ3 integrin [2] = biological target: αVβ3 integrin (UniProt P06756); remark: listed apart in the source
αVβ3 integrin [3] = biological target: αVβ3 integrin (UniProt P06756); assay: BLI; Octet Red 96; biotinylated αVβ3 integrin on streptavidin (SAX) biosensors, usGNPs in solution, association 40-60 min; 50 mM HEPES pH 7.4, 150 mM NaCl, 5 mM KCl, 0.1% BSA, 0.05% Tween 20, 50 µM CaCl2; 30 °C; Kd approximated from the response at equilibrium against usGNP concentration, fit to the Hill equation

LowcRAD-usGNP, (α-Galactose-C2)145(PEG(8)COOH)125(cRAD)20@Au2000
uptake by U-87 MG cells (high αVβ3 integrin), 1 × 10^8 particles per cell, 60 min, internalised gold by ICP-MS (usGNPs per cell) (αVβ3 integrin [1]): 1.6e+06

DM1-cRGD-usGNP, (α-Galactose-C2)135(PEG(8)COOH)115(cRGD)20(DM1)20@Au2000
cytotoxicity on αVβ3 integrin expressing U-87 MG cells (XTT viability, 3 days), IC50 in DM1 equivalent concentration; DM1-usGNP without cRGD 25.2 nM (αVβ3 integrin [2]): 5 nM

LowcRGD-usGNP, (α-Galactose-C2)145(PEG(8)COOH)125(cRGD)20@Au2000
uptake by U-87 MG cells (high αVβ3 integrin), 1 × 10^8 particles per cell, 60 min, internalised gold by ICP-MS (usGNPs per cell) (αVβ3 integrin [1]): 4.9e+06 | Kd (αVβ3 integrin [3]): 3.2 nM

HighcRGD-usGNP, (α-Galactose-C2)145(PEG(8)COOH)85(cRGD)60@Au2000
uptake by U-87 MG cells (high αVβ3 integrin), 1 × 10^8 particles per cell, 60 min, internalised gold by ICP-MS (usGNPs per cell) (αVβ3 integrin [1]): 1.67e+07 | Kd (αVβ3 integrin [3]): 0.0292 nM

HighcRAD-usGNP, (α-Galactose-C2)145(PEG(8)COOH)85(cRAD)60@Au2000
uptake by U-87 MG cells (high αVβ3 integrin), 1 × 10^8 particles per cell, 60 min, internalised gold by ICP-MS (usGNPs per cell) (αVβ3 integrin [1]): 2.7e+06
